Positions count from the first letter of the chain named. No end group written: not given here.
Assays:
[1] = target: T1, eIF4E–eIF4G complex (eIF4E WT; eIF4G residues 578–650) (Drosophila melanogaster, UniProt P48598); assay: Competition assay, displacement of GST-eIF4G from preassembled eIF4E (WT)–eIF4G complexes; assay type: biochemical; conditions: Fig. 5a,c; fivefold molar excess of MBP-tagged competitor, 30 min at 4 °C, m7GTP or Strep-Tactin pull down
T1 construct: full-length eIF4E (WT or the II-AA mutant) containing an N-terminal SNH-tag was coexpressed; made in house; host or cells: E. coli BL21 Star (DE3), coexpression
T1 sequence (P48598 1-248 isoform P48598-2): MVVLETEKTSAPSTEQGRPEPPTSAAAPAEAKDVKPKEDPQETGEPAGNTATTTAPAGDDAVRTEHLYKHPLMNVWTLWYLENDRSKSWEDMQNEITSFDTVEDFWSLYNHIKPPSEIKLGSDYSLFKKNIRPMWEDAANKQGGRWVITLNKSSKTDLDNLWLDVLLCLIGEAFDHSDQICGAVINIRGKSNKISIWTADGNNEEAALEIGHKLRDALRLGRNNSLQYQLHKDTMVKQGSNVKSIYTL
Method: For the competition assays shown in Figs 5a,c and 6a,b, complexes containing SHN- or MBP-tagged eIF4E (WT or II-AA mutant) bound to GST-eIF4G (residues 578–650), GST-Thor (full length), GST-4E-T (residues 1–58) or GST-CUP (311–440) were obtained by coexpressing the corresponding proteins in E. coli BL21 (DE3) STAR cells (30 ml culture). The cells were resuspended in lysis buffer (5 ml) that was supplemented with EDTA-free protease inhibitor (Roche) and 1 mg ml^−1 lysozyme and lysed by sonication. The cleared lysates were incubated with 400 μl of Protino Glutathione Agarose 4B (Macherey-Nagel) for 1 h. The beads were washed three times with lysis buffer, and the proteins were eluted after 10 min of incubation with lysis buffer containing 25 mM L-glutathione. The protein complexes were stored at −20 °C or used in competition assays.
The purified recombinant complexes were mixed with excess amounts of the indicated purified competitor proteins (Fig. 5c) or with bacterial lysates expressing the competitor proteins (Figs 5a and 6) and incubated for 30 min at 4 °C. After incubation, 20 μl of immobilized γ-Aminophenyl-m^7GTP or Strep-Tactin Sepharose (IBA), were added to the samples and incubated for another 40 min at 4 °C. The beads were washed three times with lysis buffer and eluted with lysis buffer containing 2.5 mM desthiobiotin (Strep-Tactin Sepharose) or with 20 μl of SDS–PAGE loading buffer (Aminophenyl-m^7GTP beads). The proteins were analyzed by 10–15% SDS–PAGE followed by staining with Coomassie blue staining. […]

[2] = system: eIF4E (residues 69–248); assay: MBP pull-down of purified eIF4E (69–248); assay type: binding, Drosophila melanogaster; conditions: MBP- and GB1-tagged fragments, 1 h at 4 °C, SDS–PAGE Coomassie, no eIF4G present
Method: In Fig. 2c, eIF4G (residues 578–650) and the C+NC peptides of CUP, Thor and 4E-T were expressed with a N-terminal MBP and a C-terminal GB1 tag. The bacterial cells were resuspended in 5 ml of lysis buffer containing 50 mM HEPES (pH 7.2), 200 mM NaCl and 2 mM DTT and lysed by sonication. Purified eIF4E (residues 69–248) was added to the cleared lysates (40–80 μl), adjusted to 0.3 ml with lysis buffer and incubated with 30 μL of amylose resin for 1 h at 4 °C. The beads were washed three times with lysis buffer and eluted with 64 μl of the same buffer containing 25 mM maltose. The proteins were analyzed by 15% SDS–PAGE followed by Coomassie blue staining.

[3] = system: eIF4E II-AA (lateral surface mutant); assay: Coimmunoprecipitation with HA-eIF4E II-AA in S2 cells; assay type: cell-based, Drosophila melanogaster; conditions: HA-eIF4E II-AA vs WT, western blot
Method: The coimmunoprecipitations assays were performed as previously described. For the pull downs using m^7GTP beads, 25 μl of immobilized γ-aminophenyl-m^7GTP (C10-spacer—Jena Bioscience) beads was added to the cell lysates and the mixtures were rotated for 1 h at 4 °C. The beads were washed three times with NET buffer (50 mM Tris (pH 7.4), 150 mM NaCl, 1 mM EDTA and 0.1% Triton X-100). The bound proteins were eluted with 2 × SDS–polyacrylamide gel electrophoresis (SDS–PAGE) sample buffer and analyzed by western blotting (WB). All of the WB experiments were developed with the ECL western blotting detection system (GE Healthcare) as recommended by the manufacturer. The antibodies used in this study are listed in Supplementary Table 2.

[4] = system: endogenous eIF4E; assay: Coimmunoprecipitation / m7GTP pull-down with endogenous eIF4E in S2 cell lysates; assay type: cell-based, Drosophila melanogaster; conditions: western blot
Outline: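 S2 cell lysates expressing HA-tagged 4E-BPs (CUP, Thor, 4E-T), eIF4G or mutants, immunoprecipitated with anti-eIF4E or anti-HA antibodies, or pulled down with m7GTP beads for 1 h at 4 °C. Washes in NET buffer (50 mM Tris pH 7.4, 150 mM NaCl, 1 mM EDTA, 0.1% Triton X-100). Bound proteins detected by anti-HA/anti-eIF4E western blot; pre-immune serum and HA-MBP as negative controls.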

[5] = system: endogenous eIF4E and HA-tagged 4E-BPs in S2 cells; assay: Immunofluorescence localization in S2 cells; assay type: cell-based, Drosophila melanogaster
[6] = system: eIF4E II-AA mutant (full length); assay: GST/MBP pull-down of full-length eIF4E II-AA mutant, coexpressed in E. coli; assay type: binding, Drosophila melanogaster; conditions: recombinant CUP (311–440), Thor (full length), 4E-T (1–58) or eIF4G (578–650), WT or mutant, SDS–PAGE
Method: For the pull-down assays shown in Fig. 3 and Supplementary Fig. 6a, the full-length His6- or SHN-tagged eIF4E (WT or II-AA mutant) was coexpressed with GST or MBP-tagged protein fragments, including CUP (residues 311–440), Thor (full length), 4E-T (residues 1–58) or eIF4G (residues 578–650) in E. coli BL21 (DE3) STAR cells in autoinducing medium[44] overnight at 20 °C. The cells were resuspended in lysis buffer (20 mM Tris–HCl (pH 7.5), 100 mM NaCl, 1 mM DTT) supplemented with EDTA-free protease inhibitor (Roche) and lysed by sonication. The cleared lysates were incubated for 1 h with 20 μl of Protino Glutathione Agarose 4B beads (Macherey-Nagel) or amylose resin (New England Biolabs). The beads were washed three times with lysis buffer, and the bound proteins were eluted with lysis buffer containing 25 mM L-glutathione or 25 mM maltose for 15 min. The proteins were analyzed by 10–15% SDS–PAGE followed by Coomassie blue staining.

[7] = system: eIF4E W106A (dorsal surface mutant); conditions: known effect of W106A substitution; cited from earlier work
[8] = target: T2, SHN-eIF4E (full length, WT) (Drosophila melanogaster, UniProt P48598-2 1-248); assay: pull-down; competition: purified SHN-eIF4E–GST-eIF4G complex with fivefold molar excess of purified MBP-Thor, 30 min at 4 °C; Strep-Tactin beads; conditions: both partners purified
T2 construct: eIF4E, Drosophila melanogaster; also called SHN-tagged eIF4E; SNH-tagged eIF4E; not shown: Strep-NusA-His (SHN), N-terminal, kept
T2 sequence (looked up): T1 sequence (P48598 1-248 isoform P48598-2)

[9] = target: T3, SHN-eIF4E (full length, II-AA mutant) (Drosophila melanogaster, UniProt P48598-2 1-248, Ile96 to Ala (II-AA) | Ile112 to Ala (II-AA)); assay: pull-down; preassembled complexes of SHN-eIF4E (WT or II-AA) with GST-eIF4G, GST-CUP, GST-Thor or GST-4E-T (coexpressed, purified on glutathione agarose) recovered on Strep-Tactin beads; conditions: both partners purified
T3 construct: eIF4E, Drosophila melanogaster; also called SHN-tagged eIF4E II-AA; not shown: Strep-NusA-His (SHN), N-terminal, kept
T3 sequence (looked up): T1 sequence (P48598 1-248 isoform P48598-2) with I96A, I112A

[10] = target: T2, SHN-eIF4E (full length, WT); assay: as above; conditions: both partners purified

## CUP NC: CUP residues 362–376, non-canonical motif, MBP/GB1 fusion (IELEGRLRRMNIWRT; also: MBP/GB1 fusion; UniProt Q9VMA3 362-376, looked up, fragment)
[1]
  competition with eIF4G for eIF4E WT (in words): did not compete with eIF4G
[2]
  pull down of purified eIF4E (in words): bind to eIF4E in the absence of eIF4G

B1: CUP: Dm CUP (1–1117), Q9VMA3; residues 311–440 in pull-down assays (protein)
chain: MQMAEAEQENGAGALKIATNAGATDRPAHQQLPLPVEDQQDEVLTPAEKGKFEYPPPPPPPTPVQAPLATKATALNASQEHDDDEANSEKWEDPCAPPPPPPLPTSAFLATGLGYLKLPAFKLKDALEKAITKLEANKRTLKASPESSRSIKNKNVVALEMLPRRSNPETIGDGSMLASTSTAVMLQTKKPAVIVEMERRCKIINLLAKQNQILESISGEAIPMHGPSKHLHEDEGLTLQVLSARASTPYTQPSSMLSCTAVSCDLEHDSPRKQVASKEAVPEQQSSQVQQKRPPSTGIHKPGSLRAPKAVRPTTAPVVSSKPVKSYTRSRLMDIRNGMFNALMHRSKESFVMPRIATCDDIELEGRLRRMNIWRTSDGTRFRTRSTTANLNMNNNNNNECMPAFFKNKNKPNLISDESIIQSQPPQPQTEFQDPAIVNQRRIGSGRLNHSKWGYNDEDYHSYHNGKSQHMEEVNSKNSKNMTVLQFFDNGEISSQPQRRPNTPVMGMSINRSENDTLHSNESSEDLSRANENYVKRVMSGFLVVSKPKSRDVEDRHHRRYRNQNEEPEWFSCGPTSRLDTIELCGFDEDEEKMLKEGNKNHGLGETERETSKQKMDHKYKWTHAEPMGRSKYMPKHDTNNNHNVENMNNVMATEHQQQKEEKRPGSGRSFQFDKFNQSQQNYESSSYVNHQQPPQTQPQQMQQQSNTNTNNSKFMSFFANEGNSSSSSLNEFFKQAINQGHGNNPEQPKSLGHIGQMPSVDQLEAKWRRNSLNNVGETANKQTDNFQKLIGSLSSAKPQSQAVGYDAISNFIMQQQQYQQQQQKQHLIIQQQQQHTAFLASLQLKAILGRADTQLLLLRLTKGEISKHGLLVQLANPRLTDMDREAITAVLQFTNTQQQQQQHKQQLDMLSSTVIASQLQNLHNLAIVQQTLAARQQPQHNPQTQAPHQLSQEDLQAHANVIMRNAVMKRKIEEQTSKLINGGAKHQAQQQYLNRGQQRQARPDANSNALLHALISGGGNNHASGYPMNGQPQKHHSNLRFGDNQNFQSFESNQPHFATQYKQQYQQSQQQHPHQQPQQLNSLHQNNAGAVNSFNKAQMQAQSAISMLPNSGDEFH
modifications: left off: GFP, end not stated, kept
notes: Dm CUP (1–1117), Q9VMA3; residues 311–440 in pull-down assays
[3]
  association with eIF4E II-AA (in words): disrupted the association
[4]
  interaction with endogenous eIF4E (in words): interacted with endogenous eIF4E
[5]; S2 cells expressing 4E-BP or mutant, LMB 100 nM, 12 h
  nuclear accumulation of endogenous eIF4E upon LMB (in words): endogenous eIF4E accumulated in the nucleus
[5]; S2 cells overexpressing 4E-BP or mutant, −LMB
  localization of endogenous eIF4E (in words): evenly distributed in the cytoplasm
[5]; S2 cells, LMB 100 nM, 12 h
  nuclear accumulation of 4E-BP upon LMB (in words): nuclear accumulation
[5]; S2 cells, steady-state, −LMB
  localization of the 4E-BP (in words): distributed evenly throughout the cytoplasm
[6]
  binding to eIF4E II-AA mutant (in words): pulled down comparable amounts of WT and mutant eIF4E
[7]
  binding to eIF4E W106A (in words): abolishes the binding

B2: MBP-Thor (full length, WT) (natural protein, Drosophila melanogaster, UniProt Q9XZ56 1-117, looked up)
chain: MSASPTARQAITQALPMITRKVVISDPIQMPEVYSSTPGGTLYSTTPGGTKLIYERAFMKNLRGSPLSQTPPSNVPSCLLRGTPRTPFRKCVPVPTELIKQTKSLKIEDQEQFQLDL
notes: Thor, Drosophila melanogaster; not shown: MBP, N-terminal, kept
[8]
  binding result: binds

B3: GST-CUP (residues 311–440) (domain or fragment, Drosophila melanogaster, UniProt Q9VMA3 311-440, looked up)
chain: VRPTTAPVVSSKPVKSYTRSRLMDIRNGMFNALMHRSKESFVMPRIATCDDIELEGRLRRMNIWRTSDGTRFRTRSTTANLNMNNNNNNECMPAFFKNKNKPNLISDESIIQSQPPQPQTEFQDPAIVNQ
notes: CUP, Drosophila melanogaster, residues 311–440; may be the same construct as m25; source: E. coli BL21 (DE3) STAR, coexpressed with SHN-eIF4E, complex purified on glutathione agarose
[9]
  binding result: binds
[10]
  binding result: binds

Source: publication PMC4164784, “4E-BPs require non-canonical 4E-binding motifs and a lateral surface of eIF4E to repress translation” (Nature Communications, 2014)
